Data set [1] addresses His-CKS1 (UniProt P61024).
Data set [2] deals with T1, 35S-labeled in vitro translated (IVT) SBP1 protein (human, UniProt Q8N5L8 1-163, 35S label).
T1 construct: Translated in reticulocyte lysate from the full-length SBP1 cDNA; The two differ only at the C-terminal residues; also called full-length SBP1; human SBP1
T1 sequence: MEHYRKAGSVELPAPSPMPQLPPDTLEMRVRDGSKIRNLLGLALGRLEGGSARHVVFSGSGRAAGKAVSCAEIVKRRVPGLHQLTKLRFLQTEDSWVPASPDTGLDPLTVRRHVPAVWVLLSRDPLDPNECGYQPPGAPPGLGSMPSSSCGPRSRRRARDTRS
The data set can be described thus: GST pull-down of 35S-labeled IVT SBP1, SDS-PAGE and fluorography. As for the experimental part:
cDNAs encoding wild type Survivin or Survivin T34E was cloned into the EcoRI and XhoI sites of pGEX-4T-1 (Amersham-Pharmacia, Sweden), expressed in XL-1-blue cells (Stratagene, Inc., La Jolla, Calif.), and affinity-purified using glutathione-Sepharose, using methods essentially as described in (Xie et al., 1998, Biochemistry, 37:6410-6418). A GST-CD40 fusion protein was included as a negative control. Purified GST-fusion proteins (0.5-1.0 μg immobilized on 10-20 μl of glutathione beads) and 2.5 μl of […] reticulocyte lysates (TNT-Lysates; Promega, Inc., Madison, Wis.) containing ³⁵S-labeled in vitro translated (IVT) SBP1 protein were incubated in […] of HKMEN (10 mM HEPES [pH 7.2], 142 mM KCl, 5 mM MgCl₂, 2 mM EGTA, 0.1% NP-40) at 4° C. for 30 minutes. The beads were washed 3× with 1 ml HKMEN solution to remove unbound ³⁵S-labeled IVT SBP1 protein, followed by boiling in 25 μl of Laemmli-SDS sample buffer to release and denature SBP1 bound to the matrix-bound GST-fusion protein. The eluted proteins were analyzed by SDS-PAGE (12%) and detected by fluorography.

The target in data set [3] is fusion protein of the B42 trans-activation domain fused to XIAP (UniProt P98170 1-497). In words: yeast two-hybrid, LEU2 growth and beta-galactosidase filter assay. As for the experimental part: (§1) A plasmid (1 μg DNA) encoding a fusion protein of the LexA DNA-binding domain appended to the N-terminus of SBP1 was co-transformed into yeast strain EGY48 with […] of pJG4-5 plasmid encoding fusion proteins of the B42 trans-activation domain fused to Survivin, Survivin T34E, Bcl-2, pro-caspase-9, XIAP, Bax, or Apaf-1. Bcl-2, pro-caspase-9, XIAP, Bax, and Apaf-1 are other […]. […] Only the Survivin T34E scored positive for leucine and β-galactosidase activity, wild type Survivin, Bcl-2, caspase-9, XIAP, Bax and Apaf-1 scored negative under the conditions.
Chain of fusion protein of the B42 trans-activation domain fused to XIAP (P98170 whole entry, the tested form may be a part): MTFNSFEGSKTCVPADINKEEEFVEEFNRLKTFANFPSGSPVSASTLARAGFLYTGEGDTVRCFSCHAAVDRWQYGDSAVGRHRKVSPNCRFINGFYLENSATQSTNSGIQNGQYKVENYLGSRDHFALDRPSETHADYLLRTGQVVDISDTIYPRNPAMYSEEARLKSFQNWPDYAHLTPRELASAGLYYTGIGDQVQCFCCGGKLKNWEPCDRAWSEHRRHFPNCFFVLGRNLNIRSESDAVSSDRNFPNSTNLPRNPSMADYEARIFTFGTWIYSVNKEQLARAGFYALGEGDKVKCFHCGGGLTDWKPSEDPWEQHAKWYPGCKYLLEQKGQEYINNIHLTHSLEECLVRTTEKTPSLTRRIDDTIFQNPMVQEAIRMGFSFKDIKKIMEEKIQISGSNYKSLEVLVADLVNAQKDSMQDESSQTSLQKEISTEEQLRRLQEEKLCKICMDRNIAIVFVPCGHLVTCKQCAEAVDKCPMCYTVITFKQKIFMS

Data set [4] addresses T2, fusion protein of the B42 trans-activation domain fused to Apaf-1 (UniProt O14727 1-1248).
T2 sequence (looked up): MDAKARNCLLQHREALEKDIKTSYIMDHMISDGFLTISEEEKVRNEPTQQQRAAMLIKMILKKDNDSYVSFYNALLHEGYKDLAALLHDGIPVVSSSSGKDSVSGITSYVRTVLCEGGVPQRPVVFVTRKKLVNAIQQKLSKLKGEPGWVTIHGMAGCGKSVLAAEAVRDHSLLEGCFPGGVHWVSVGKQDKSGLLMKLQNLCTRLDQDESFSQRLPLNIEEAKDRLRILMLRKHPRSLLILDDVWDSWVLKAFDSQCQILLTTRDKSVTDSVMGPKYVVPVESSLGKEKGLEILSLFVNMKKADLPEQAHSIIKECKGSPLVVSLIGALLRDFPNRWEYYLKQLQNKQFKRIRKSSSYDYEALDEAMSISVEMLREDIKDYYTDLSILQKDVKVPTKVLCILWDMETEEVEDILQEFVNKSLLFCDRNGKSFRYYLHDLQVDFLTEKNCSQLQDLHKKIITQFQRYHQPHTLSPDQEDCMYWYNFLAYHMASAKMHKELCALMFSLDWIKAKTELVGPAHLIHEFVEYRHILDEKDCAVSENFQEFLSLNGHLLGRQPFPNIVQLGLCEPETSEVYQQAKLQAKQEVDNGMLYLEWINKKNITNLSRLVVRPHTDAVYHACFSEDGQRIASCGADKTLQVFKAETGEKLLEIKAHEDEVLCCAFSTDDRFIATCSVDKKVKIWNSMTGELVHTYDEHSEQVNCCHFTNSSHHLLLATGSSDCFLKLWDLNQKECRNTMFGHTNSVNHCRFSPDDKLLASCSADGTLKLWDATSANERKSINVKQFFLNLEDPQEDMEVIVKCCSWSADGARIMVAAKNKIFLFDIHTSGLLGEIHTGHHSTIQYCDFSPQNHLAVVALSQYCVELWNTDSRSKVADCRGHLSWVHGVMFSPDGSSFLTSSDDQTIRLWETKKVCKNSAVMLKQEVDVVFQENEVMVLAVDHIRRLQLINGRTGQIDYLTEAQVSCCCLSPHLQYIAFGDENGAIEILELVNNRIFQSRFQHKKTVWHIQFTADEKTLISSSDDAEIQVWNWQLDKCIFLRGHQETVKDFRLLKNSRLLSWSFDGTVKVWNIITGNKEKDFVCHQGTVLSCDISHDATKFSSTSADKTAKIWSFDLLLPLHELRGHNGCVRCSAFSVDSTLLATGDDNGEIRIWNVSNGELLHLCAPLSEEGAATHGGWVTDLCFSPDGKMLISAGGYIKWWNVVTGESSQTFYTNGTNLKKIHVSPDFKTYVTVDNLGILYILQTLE
The description is as above. As for the experimental part: as §1

Data set [5] addresses T3, fusion protein of the B42 trans-activation domain fused to pro-caspase-9 (UniProt P55211 1-416).
T3 sequence (looked up): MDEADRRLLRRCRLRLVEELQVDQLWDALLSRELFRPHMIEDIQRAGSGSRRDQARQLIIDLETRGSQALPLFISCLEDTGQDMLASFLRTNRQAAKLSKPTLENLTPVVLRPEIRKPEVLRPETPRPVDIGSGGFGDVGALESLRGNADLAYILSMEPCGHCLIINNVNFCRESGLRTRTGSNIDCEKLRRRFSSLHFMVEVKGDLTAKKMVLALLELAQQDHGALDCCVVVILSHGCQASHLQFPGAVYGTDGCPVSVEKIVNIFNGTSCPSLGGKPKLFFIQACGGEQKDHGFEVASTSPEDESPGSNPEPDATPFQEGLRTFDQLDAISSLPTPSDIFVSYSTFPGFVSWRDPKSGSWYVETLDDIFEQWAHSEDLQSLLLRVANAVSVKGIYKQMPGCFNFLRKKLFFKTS
The description is as above. The method, then: as §1

Chain of His-CKS1 (P61024 whole entry, looked up): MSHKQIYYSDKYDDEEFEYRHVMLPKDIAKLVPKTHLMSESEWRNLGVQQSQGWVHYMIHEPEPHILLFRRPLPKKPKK

immunoprecipitated cyclin B1/cdc2: the “histone H1 phosphorylation” value in data set [1] is “is phosphorylated in the added presence of His-Cks 1”.

B1: GST-CD40 cytosolic domain protein (other, UniProt P25942 216-277, looked up)
chain: KKVAKKPTNKAPHPKQEPQEINFPDDLPGSNTAAPVQETLHGCQPVTQEDGKESRISVQERQ
notes: domain: cytosolic domain; Negative control; also called GST-CD40 fusion protein; not shown: glutathione S-transferase (GST) fusion partner
B1: the binding result in data set [2] is recorded as “no binding”.

B2: fusion protein of the LexA DNA-binding domain appended to the N-terminus of SBP1 (other)
chain: MKALTARQQEVFDLIRDHISQTGMPPTRAEIAQRLGFRSPNAAEEHLKALARKGVIEIVSGASRGIRLLQEEEEGLPLVGRVAAGEPLLAQQHIEGHYQVDPSLFKPNADFLLRVSGMSMKDIGIMDGDLLAVHKTQDVRNGQVVVARIDDEVTVKRLKKQGNKVELLPENSEFKPIVVDLRQQSFTIEGLAVGVIRNGDWLMEHYRKAGSVELPAPSPMPQLPPDTLEMRVRDGSKIRNLLGLALGRLEGGSARHVVFSGSGRAAGKAVSCAEIVKRRVPGLHQLTKLRFLQTEDSWVPASPDTGLDPLTVRRHVPAVWVLLSRDPLDPNECGYQPPGAPPGLGSMPSSSCGPRSRRRARDTRS
notes: Yeast two-hybrid construct expressed in yeast strain EGY48
With B2, the binding result in data set [3], in data set [4] and in data set [5] was “no binding” in each case.

The record behind these values is patent US20060035359A1 (BURNHAM INSTITUTE, published 2006).
